Like-named read-outs stand apart in the source and are kept apart here.
Key:
[1] = target: T1, recombinant human IL-6R-extracellular domain (ECD) (human, UniProt P08887 20-365); test: direct ELISA on IL-6R
T1 construct: extracellular domain; also called IL-6R-ECD
T1 sequence (looked up): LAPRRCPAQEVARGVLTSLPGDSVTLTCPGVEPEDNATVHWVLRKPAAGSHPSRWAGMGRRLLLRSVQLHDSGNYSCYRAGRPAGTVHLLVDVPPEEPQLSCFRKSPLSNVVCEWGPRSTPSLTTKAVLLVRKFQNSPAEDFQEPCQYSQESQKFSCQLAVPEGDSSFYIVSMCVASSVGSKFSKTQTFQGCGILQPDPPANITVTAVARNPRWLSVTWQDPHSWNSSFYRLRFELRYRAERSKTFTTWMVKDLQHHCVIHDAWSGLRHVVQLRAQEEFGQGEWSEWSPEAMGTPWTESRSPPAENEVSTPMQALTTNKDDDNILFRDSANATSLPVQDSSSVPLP

[2] = target: T1, recombinant human IL-6R-extracellular …; test: receptor-ligand ELISA: blocking of IL-6 binding to IL-6R
[3] = target: T1, recombinant human IL-6R-extracellular …; test: direct ELISA on IL-6R; remark: listed apart in the source
[4] = target: T1, recombinant human IL-6R-extracellular …; test: receptor-ligand ELISA, blocking of IL-6 binding to IL-6R
[5] = target: T2, IL-6R on human myeloma U266B1 cells (human, UniProt P08887 20-468); test: FACS binding to IL-6R on U266B1 cells
T2 construct: whole, on cells; Also used as target of the cell-based functional assays (TF-1 proliferation); also called IL-6R on U266B1 cells expressing IL-6R; cell-surface IL-6R
T2 sequence (looked up): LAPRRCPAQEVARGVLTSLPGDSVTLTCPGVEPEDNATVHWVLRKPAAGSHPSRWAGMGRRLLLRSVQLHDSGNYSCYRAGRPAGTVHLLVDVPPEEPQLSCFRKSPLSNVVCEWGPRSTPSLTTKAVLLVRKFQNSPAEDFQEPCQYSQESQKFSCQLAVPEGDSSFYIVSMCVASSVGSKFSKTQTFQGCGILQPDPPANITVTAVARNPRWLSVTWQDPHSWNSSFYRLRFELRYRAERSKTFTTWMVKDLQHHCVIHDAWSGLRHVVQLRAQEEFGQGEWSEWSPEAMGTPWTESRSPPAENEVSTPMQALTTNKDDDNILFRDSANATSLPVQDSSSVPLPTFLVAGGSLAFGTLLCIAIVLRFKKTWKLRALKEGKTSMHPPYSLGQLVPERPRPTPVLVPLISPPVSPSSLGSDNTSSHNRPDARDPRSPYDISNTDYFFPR

[6] = target: T2, IL-6R on human myeloma U266B1 cells; test: FACS on U266B1 cells
[7] = target: T2, IL-6R on human myeloma U266B1 cells; test: cell-based or functional assay
[8] = target: T2, IL-6R on human myeloma U266B1 cells; test: cell-based or functional assay; remark: listed apart in the source
[9] = target: T2, IL-6R on human myeloma U266B1 cells; test: FACS binding to IL-6R on U266B1 cells; remark: listed apart in the source
[10] = target: T1, recombinant human IL-6R-extracellular …; test: SPR
[11] = target: T1, recombinant human IL-6R-extracellular …; test: receptor-ligand ELISA, blocking of IL-6 binding to IL-6R; remark: listed apart in the source
[12] = target: T1, recombinant human IL-6R-extracellular …; test: receptor-ligand ELISA, reference Tocilizumab
IL-6R on TF-1 cells = IL-6R on TF-1 cells (Homo sapiens); test: cell-based or functional assay
[13] = target: T2, IL-6R on human myeloma U266B1 cells; test: cell-based or functional assay; remark: listed apart in the source

B1: clone 51 rabbit anti-IL-6R antibody (antibody, V domains shown)
VH: QSVEESGGRLVTPGTPLTLTCTASGFDISSYSLQWVRQSPGKGLEYIGFIRPDGSAHYATWAKGRFTISKTSSTTVDLKMTSLTTEDTATYFCARDDISSDYFPNLWGPGTLVTVSS
VL: QVLTQTPSPVSAAVGGTVTISCQASESVYNKNNLAWYQQKPGQPPKLLIYDASDLASGVSSRFKGSGSGTQFTLTISDLECADAATYYCAGGGSGNVYDFGGGTEVVVK
EC50 [1]: ~0.03 µg/mL
IC50 (read off the curve) [2]: ~0.3 µg/mL
EC50 [3]: 0.03 µg/mL
IC50 [4]: 0.8 µg/mL
EC50 [5]: 0.164 µg/mL
EC50 (read off the curve) [6]: ~0.2 µg/mL
TF-1 proliferation IC50 [7]: 0.154 µg/mL
TF-1 proliferation IC50 [8]: 0.02 µg/mL
EC50 [9]: 0.0687 µg/mL
Kd [10]: 1.17 nM
koff [10]: 0.000463 s⁻¹
kon [10]: 393000 M⁻¹ s⁻¹
IC50 [11]: 0.288 µg/mL

B2: humanized clone #36 anti-IL-6R antibody (antibody, human IgG1, kappa, V domains shown)
VH: EVQLVESGGGLVQPGGSLRLSCAVSGFSLSSYYMSWVRQAPGKGLEWIGITTTSTNTFYASWAKGRFTISKDSSKNTVYLQMNSPRAEDTAVYFCARYGGNSAYYAFSLWGQGTLVTVSS
VL: DIQMTQSPSSLSASVGDRVTISCQSSQSVYNNNYLAWFQQKPGKPPKLLIYGASNLASGVPSRFSGSGSGTQFTLTISSLQPEDVATYYCQGYYNGVIFVFGGGTKVEIKR
notes: Humanized VH cloned into human IgG1 CH vector, humanized VK into human CK vector; also called Humanized 36; humanized 36
fold potency against Tocilizumab in ligand-receptor binding assays [12]: 6 fold
EC50 [1]: 0.0216 µg/mL
IC50 (read off the curve) [2]: ~0.2 µg/mL
EC50 [5]: 0.145 µg/mL
TF-1 proliferation IC50 [7]: 0.181 µg/mL
Kd [10]: 0.526 nM
koff [10]: 0.00031 s⁻¹
kon [10]: 589000 M⁻¹ s⁻¹
IC50 [11]: 0.39 µg/mL

B3: clone 42 rabbit anti-IL-6R antibody (antibody, V domains shown)
VH: QSVEESGGRLVTPGTPLTLTCTVSGFSLSNYWMSWVRQAPGKGLEWIAFIGGGNTFYASWAKGRFTISKTSSTTVDLSMPSPTTEDTATYFCARGYGAPGYDLWGQGTLVTVSL
VL: AIVMTQTPSSKSVPVGDTVTINCQASESVYTNNRLSWYQQKPGQPPKLLIYYASTLASGVPSRFKGSGSGTQFTLTISDVVCDNAATYYCVGYKSSDGDGTAFGGGTEVVVK
EC50 [3]: 0.04 µg/mL
IC50 [4]: 0.34 µg/mL
TF-1 proliferation IC50 [8]: 0.03 µg/mL
EC50 [9]: 0.0961 µg/mL

B4: clone 21 rabbit anti-IL-6R antibody (antibody, V domains shown)
VH: QSVEESGGRLVTPGTPLTLTCTVSGIDLSNYYMSWVRQAPGKGLEWIGISSTTSNTFYASWAKGRFTISKTSATVDLKITSPTTEDTATYFCARYGGNSAYYAFSLWGQGTLVTVSS
VL: AVVLTQTPSPVSAAVGGTVTINCQSSQSVYNNNYLAWYQQKPGQPPKLLIYGASNLASGVPSRFKGSGSGTQFTLTISEVQCDDAATYYCQGYYNGVIFVFGGGTEVVVK
EC50 [3]: 0.04 µg/mL
IC50 [4]: 0.47 µg/mL
TF-1 proliferation IC50 [8]: 0.11 µg/mL
EC50 [9]: 0.0326 µg/mL

B5: clone 36 rabbit anti-IL-6R antibody (antibody, V domains shown)
VH: QSVEESGGRLVTPGTPLTLTCTVSGFSLSSYYMSWVRQAPGKGLEWIGITTTSTNTFYASWAKGRFTISKTSATVDLKITSPTIEDTATYFCARYGGNSAYYAFSLWGQGTLVTVSS
VL: QVLTQTASSVSAAVGGTVTISCQSSQSVYNNNYLAWFQQKPGQPPKLLIYGASNLASGVPSRFKGSGSGTQFTLTISDLECDNAATYYCQGYYNGVIFVFGGGTEVVVK
EC50 [1]: 0.0595 µg/mL
IC50 (read off the curve) [2]: ~0.2 µg/mL
EC50 [3]: 0.02 µg/mL
IC50 [4]: 0.23 µg/mL
IC50 (read off the curve), IL-6 mediated TF-1 proliferation (IL-6R on TF-1 cells): ~0.1 µg/mL
EC50 [5]: 0.0776 µg/mL
TF-1 proliferation IC50 [7]: 0.163 µg/mL
inhibition of STAT3 phosphorylation, fold as compared to tocilizumab (hPM-1) [13]: > 10 fold
TF-1 proliferation IC50 [8]: 0.04 µg/mL
EC50 [9]: 0.0203 µg/mL
Kd [10]: 0.635 nM
koff [10]: 0.000342 s⁻¹
kon [10]: 538000 M⁻¹ s⁻¹
IC50 [11]: 0.235 µg/mL

B6: clone 5 rabbit anti-IL-6R antibody (antibody, V domains shown)
VH: QSLEESGGRLVTPGTPLTLTCTVSGIDLSRYWMSWVRQAPGKGLEWIGMISGGNTWYASWAKGRFTISKTSTTVDLKITSPTTEDTATYFCARGIDTGIATTFNLWGPGTLVTVSS
VL: AQVLTQTPSSVSAAVGGTVTISCQSSQSVYNNNRLSWFQQKPGQPPKLLIYYASTLASGVPSRFKGSGSGTQFTLTISDLECDDAATYYCQGYYSGVINVFGGGTEVVVK
EC50 [3]: 0.04 µg/mL
IC50 [4]: 0.38 µg/mL
TF-1 proliferation IC50 [8]: 0.03 µg/mL
EC50 [9]: 0.0261 µg/mL
Kd [10]: 0.523 nM
koff [10]: 0.000279 s⁻¹
kon [10]: 533000 M⁻¹ s⁻¹

B7: clone 23 rabbit anti-IL-6R antibody (antibody, V domains shown)
VH: QSLEESGGRLVTPGTPLTLTCTVSGIDLSRYWMSWVRQAPGKGLEWIGMISGGNTWYASWAKGRFTISKTSTTVDLKITSPTTEDTATYFCARGIDTGIATTFNLWGPGTLVTVSS
VL: AQVLTQTPSSVSTAVGGTVTISCQSSQNVYNNNRLSWFQQKPGQPPKLLIYYTSTLPSGVPSRFKGSGSGTQFTLTISDLECDDAATYYCQGYYSGVINVFGGGTEVVVK
EC50 [3]: 0.07 µg/mL
IC50 [4]: 0.38 µg/mL
TF-1 proliferation IC50 [8]: 0.07 µg/mL
EC50 [9]: 0.0263 µg/mL

B8: clone 37 rabbit anti-IL-6R antibody (antibody, V domains shown)
VH: QSLEESGGRLVTPGTPLTLTCTVSGIDLSRYWMSWVRQAPGKGLEWIGMISGGNTWYASWAKGRFTISGTSTTVDLKIISPTTADTATYFCARGIDTGIATTFNLWGPGTLVTVSS
VL: AQVLTQTPSSVSAAVGGTVTISCQSSQSVYSNNRLSWFQQKPGQPPKLLIYYTSTLASGVPSRFKGSGSGTQFTLTISDLECDDAATYYCQGYYSGVINVFGGGTEVVVK
EC50 [3]: 0.05 µg/mL
IC50 [4]: 0.39 µg/mL
TF-1 proliferation IC50 [8]: 0.09 µg/mL
EC50 [9]: 0.0331 µg/mL

B9: humanized clone #51 anti-IL-6R antibody (antibody, human IgG1, kappa, V domains shown)
VH: EVQLVESGGGLVQPGGSLRLSCAASGFDISSYSLQWVRQSPGKGLEYIGFIRPDGSAHYATWAKGRFTISKDSSKNTVYLQMNSLRAEDTAVYFCARDDISSDYFPNLWGPGTLVTVSS
VL: DIQMTQSPSTLSASVGDRVTISCQASESVYNKNNLAWYQQKPGKPPKLLIYDASDLASGVPSRFSGSGSGTQFTLTISSLQPDDFATYYCAGGGSGNVYDFGGGTKVEIKR
notes: Humanized VH cloned into human IgG1 CH vector, humanized VK into human CK vector; also called Humanized 51; humanized 51
EC50 [1]: 0.0169 µg/mL
EC50 [5]: 0.356 µg/mL
TF-1 proliferation IC50 [7]: 1.06 µg/mL
Kd [10]: 1.29 nM
koff [10]: 0.0004 s⁻¹
kon [10]: 311000 M⁻¹ s⁻¹
IC50 [11]: 0.26 µg/mL

B10: clone 40 rabbit anti-IL-6R antibody (antibody, V domains shown)
VH: QSLEESGGRLVSPGGSLTLTCTVSGVDLNTYAMGWVRQAPGKGLECIGVILGSGTTYYANWAKGRFTISKTSSTTVDLKMTNLTAADTATYFCAGDRYGSLEEVITPYFDLWGPGILVTVSS
VL: DVVMTQTPASVEAAVGGTVTIKCQASQNIYNNLAWYQQKPAQPPKLLIYSASTLESGVPSRFKGSGSGTGYTLTISDLECADAATYYCQSAYYTSYIDHNVFGGGTEVVVE
EC50 [3]: 0.02 µg/mL
IC50 [4]: 1.36 µg/mL
TF-1 proliferation IC50 [8]: 0.02 µg/mL
EC50 [9]: 0.0573 µg/mL

Source: US20120225060A1 (APEXIGEN, published 2012)
